The record followed here is the DeepSol protein solubility set.

The nature of the series: soluble on expression in E. coli; label from the status in PepcDB or PDB records.
Regarding “MKNLVEEKEAFRFGVSGDIGSFSEEAALLYARKKGLNAHLVHLLDMEGVLNAIENETIDLGILPVVNLLGGLVKPAFQAMGKYSFTPIDEIWHDINQCLLVKTNTQNHKITHIVSHPQGFAQCKKFLRNKFKNAKKIEWIDTAKAAKDLAEGILPPHAAVIASARCAPLYDLKISARNIQDSHLNRTAFILVKKLEHHHHHH”, the “soluble on expression in E. coli” value is “not soluble”. For “MSLSRSLDSARSFLERLEARGGREGAVLAGEFSDIQACSAAWKADGVCSTVAGSRPENVRKNRYKDVLPYDQTRVILSLLQEEGHSDYINGNFIRGVDGSLAYIATQGPLPHTLLDFWRLVWEFGVKVILMACREIENGRKRCERYWAQEQEPLQTGLFCITLIKEKWLNEDIMLRTLKVTFQKESRSVYQLQYMSWPDRGVPSSPDHMLAMVEEARRLQGSGPEPLCVHCSAGCGRTGVLCTVDYVRQLLLTQMIPPDFSLFDVVLKMRKQRPAAVQTEEQYRFLYHTVAQMFCSTLQNASEGHHHHHH” the value was “soluble”. For “MEESIMSIKVDMSLDCKGLACPMPIVKTKKAIEGLAPGQVIEVKATDKGSTIDIKSWASKVGHQYIGTKHEGDVLVHYVRKANEHEVNEVVKYPHTITNAELQSILSHGEESIVLDVREAAEFAFGHIPSAISVPLGELDSAVLDETKRIYVICRTGNRSDVACHMLKEKGYANVKNVIPGMLEWKGNVEK” the value was “not soluble”; for “MNESERKIVEEFQKETGINFKNEELLFRALCHSSYANEQNQAGRKDVESNEKLEFLGDAVLELFVCEILYKKYPEAEVGDLARVKSAAASEEVLAMVSRKMNLGKFLFLGKGEEKTGGRDRDSILADAFEALLAAIYLDQGYEKIKELFEQEFEFYIEKIMK”, “not soluble”; for “MAAERLDPWGAVEIKDYDRLLRTFGIRPFSEVLPLLRKAGMEPSFLMRRGIIFGHRDFDKILEAKARGERVAVLTGFMPSGKFHFGHKLTVDQLIYLQKNGFKVFVAIADAEAFAVRRIGREEAVRIAVEEYIANMIALGLDPKDTEFYFQTNRGTPYFRLIQLFSGKVTAAEMEAIYGELTPAKMMASLTQAADILHVQLDEYGGYRHVVVPVGADQDPHLRLTRDLADRMAGVVELERPASTYHKLQPGLDGRKMSSSRPDSTIFLTDPPEVARNKLFRALTGGRATAEEQRRLGGVPEVCSVYHMDLYHLMPDDGEVKHIYTSCRLGKILCGECKQIAWEKLERFLAEHQSRLEKAKTIAWKLVEPPRF”, “soluble”. For “KTKVGNQSPDVRFGLQNTFKIKDFTVNIDMDGAIGGTLISTTTQKMWWGGKHPKSTMYRQEEYDNGGKPVYVPEGVNIVSGEVTYDVNGNIVSDTRVYKKNETAVNIQTWAQNYPYRAVVRTEESELFANTFSRSFLKLRRVAVTYDLTKFIQSQFIKGLDVTVFGNNLAVLKKTPYLDPDFGASDGDLQDPSARYVGVSANIKF”, the “soluble on expression in E. coli” value is “not soluble”. The entry for “MGSDKIHHHHHHMNINPTEKLSQPIVEKVAIVGAGPGGLAAAIALRSQGIDVQIYEKAQEFRPAGTGLGLAPNGLNFLDAIAPGIVETLKGSGCEVHHTVLKNFRGETIRANASKYQEKYGQPLVTVWWYRLQQVLASRLPSDIVHLNHRCIGFEQDENGVEIRFDGEKSVYADLLIGADGVNSVIREILFGEGKPNYIGSMCWRAVIKYHHELFNDYELVFVKGNQQFMYLLNVGGGYMSWISRKFSPEYSLCHSADEVKSRILHELADWDESFQVVVQATPAEQIWEGPICDRPPLTHWSQGRVTLLGDAAHPMAPAMGQGANTTFEDAYELRECFSQSANLQEALTSYEQRRMQRTEIIQARSALGEMRYYESNTVASNGQREQTMSVNDDFHKWLYDYKPSATIKF” is “not soluble”; for “MNYLFKNGRYMNEEGKIVATDLLVQDGKIAKVAENITADNAEVIDVNGKLIAPGLVDVHVHLREPGGEHKETIETGTLAAAKGGFTTICAMPNTRPVPDCREHMEDLQNRIKEKAHVNVLPYGAITVRQAGSEMTDFETLKELGAFAFTDDGVGVQDASMMLAAMKRAAKLNMAVVAHCEENTLINKGCVHEGKFSEKHGLNGIPSVCESVHIARDILLAEAADCHYHVCHVSTKGSVRVIRDAKRAGIKVTAEVTPHHLVLCEDDIPSADPNFKMNPPLRGKEDHEALIEGLLDGTIDMIATDHAPHTAEEKAQGIERAPFGITGFETAFPLLYTNLVKKGIITLEQLIQFLTEKPADTFGLEAGRLKEGRTADITIIDLEQEEEIDPTTFLSKGKNTPFAGWKCQGWPVMTIVGGKIAWQKESALV” it is “not soluble”. On to “MKTTDLFSTLENNILRNSLDSTTKDKLLSNLSLLRKASLNILITGSTGSGKSSTINALFDMTVAQVGIDSDPHTESVQCYHLNNLVLWDTPGLGDGIDEDKKHVQAIKQLLNKRDDHGQLAIDLVLVILDGGSRDLGTPLRLINDIVIPQLGDDAEKRLIVAVNQADVALKGPESWNYSDNLPTDKAKAFLEKQQNSIARRIHKATQINVKTLYFVAGYSDGVNRQRPYNLSKLLYTIVEILPNNKRVMLANRTISNDADNWKDNDASDYNKKTTLSLWEAIVETTLQGASIGSDIGSIFGKPGEILGKVVGSVAGLFFGGLRYTFGFLEHHHHHH”, for which the “soluble on expression in E. coli” value is on record as “soluble”. The entry for “MEEKWCNYLLNEGRDWKTMNKTILKTCIISAVLGGVLLTEKNGEVKAEEITPQTNHTGVFKDVPKGHWAYEAIQQLTDEKIVFGYDDGRFGFGDNVTREQVAALLYRYFNLAEEKNYENPYGDVSEESTSYIKEILSLTEMGVFKGDEHGNFRPKASLTRAEMAQVLTNAFHLKAKSNHTFNDVSTNSWASNAISAVQTNNIAKGVGGGNFAPNMDVTREQYAQFLYNAIQETEKTQETKGQLLASILGETNWQGTKVYDKDHNDVTKENQNFIGLAKYDAKTARYEFFNASTGESRNDSGTFFITNDGKKRVLISETQNYQAVVELTQLDKEKFTYKRMGKDAKRNDVEVFVEHIPYQEKELSFTRPDKNLESSTGKIVTDVDGDKILSSTLWNGTVVLDEQGNNVTKYNSNLISLAKYDKNTNKYEFFNVNTGESRGDYGFFDVVHDNKIRAHVSLGNNKYGAVLELTELNKEKFTYTRMGKDANGKDIKIFVEHEPNTGDLKPNFTK” is “not soluble”. For “MTLAVLASRAIAGWQAPAVRVETHLGSGLPAFAIVGLPDVEVRESRERVRAAIQNSGFDFPPGRITVNLSPADLPKASARFDLPIALGILLASGQVAASAAQTAALPDCVWAAELSLSGALVPLAAPLALALAVAREQPGATLVLPAGSAAVAAWVPGIRVLAAHTLGEAAAYLAGHAELAPAERRSWPEAEPGPCLSDVRGQPAARRALEVAAAGGHSLLMCGPPGAGKSMLAQRLPGLLPPLEQRQALEVAAIAGAGGAPEVLRGQPPFRAPHHSASAAALVGGGARPRPGEISLAHHGVLFLDELPEFERRALESLREPLETGKVVISRALHSVEYPAVFQLVAAMNPCPCGWRGHASKACRCTPDQVRRYAARVSGPLVDRIDLWIELPATEPQWLAEPPGEPSLPVRERVARCRQRQLARQGCLNAKLSGPALDAHCALGAAARTLLQQAMRRLGGSARAAHRALRVARTLADLAHEPEIGAAHIAEAVQYRRPT” the value was “not soluble”; for “MSNNIVPSSVLPAGENLLTVPDYAERIGQPVTRVFDQIGEHKLICVLDNGIKKIPEAFLSEKGTTNKFVPGVIALLSDGGYTDQEIFKFLFTEDESLPGRPIDAIHGHLAREVMRRAQAMGF”, “soluble”; for “MISAGIDPGTGSYDVVAIEDGKVVFRKNIPTEEVRASPDVIVEVIEESGAEVAAGLSGYGLPVKRFSELDEVDLLLMTLNFDSERAIGLRNIIKAVKERNVNLYTVPAVIHLPTVPPWRKMNRIDIGTADKLCSAVLAVAKLSEEEELTKLNFILAEVGEGFNAFIAVRNGRIVDGMGGTTSFPGYSSLGAMDAELAYIIGEFPKKLIFSGGVKSFASEWKVNENEVTNILSEFVLKGIRAMEVSTDADFYMLSGRFAPDVLRKLRGEGKEVRLLGGFGRGKQSAQGAAIIANAIAGGEYREIVDYMRIFEAKGTLLDYITSDIMEYVRRGLKRRGD”, “not soluble”. As for “MAQNLIFITIALVAIVNAGPGEEREKGPGEHKRGGKHHGFPSFFGNVSAEGRKEIAVVFKNENLTLAQADTQIASLAEKYGFAAAYKEHKEKEAVRQAETKKNTTTVINNLSSVATKLSAIRENKDQTRKAQHEAIEALRNENGVEVDTIEFIAKRSRGFGGRHGGRKGGKGGKHFGKKNGDKKRGPHGGDEEGKKTKEAAQ”, the “soluble on expression in E. coli” value is listed as “not soluble”. As to “MSTAVIVSRPPSQTASFHGPQHPNRCSFSSSSSESIPPTTGRAKGSSDFEELEIRIDKALKERDAEWRKHEKSQIQFLQNETSNMLKSLHNEINRLGNELREEKRKTLHGDDDSADKIAELEKVITEKEAYTKNLEKKVSTTIQKLQEQITIQSDRIRQLNEELSDRNQTVTHLSQQLRAIKLREAMATSQHRRRASSQLSTTSSPPMTSPSSPHRIFPPVSSGLLSASVAVTYPGNSRISIQKRSTSAMRAPTMPN”, the “soluble on expression in E. coli” value is listed as “not soluble”.

“MMMMRAFIAENVRGIYAFDEDGKLVGKRYFTDKPEKILDGLLKGELVKDLEEFLNELREKGYDEFIFEHPELSRKAKELGFNATTEFPNLAGERLRSNPEEFLGENWFDDYYNVGVALTRMRIQEQSGARDKMVIQAIEALDDVDKVINLLVSRLREWYSLHFPELDEILPRHPQYVAFVKAIGHRDNVDEEKLRELGLSDEKIKKIIEAKEKTMGAWMDETDIAIVQHFAEEIDRLYKLRKELEDYIDKAMDDVAPNLKALVGAKLGARLISLAGGLKELAMLPSSTIQVLGAEKALFRHLRTGAKPPKHGVIYQYPAINRSPWWQRGKIARALAGKLAIAARVDYFSGEYIAEELKKELEARIKEIKEKYPRPPKRRKEERKGRKPWKEKKKKKKKKKGGRR”: the “soluble on expression in E. coli” value was “soluble”.

In the case of “MGSDKIHHHHHHMRQLSINRLKEGDILGRTIYANDGRVLLGKGMALTKSYIDRLKTLGINILYIDDEVSKDIIVEDIISEEHRREAMASLDNAVQAVKVGKDFDGFNVKRNIDNIIQDILFQKDIFIGLTDMRTYDNQIFAHSVNVCVLSIVLGKALGLDRENLEGLAIGALFHDIGTVKLPKKLLSKREPFTPKEAALYQTHTNHGFDILRTKRELNLLSAHIAFQHHERLNGNGYPRKLEGDAIHQWAQIVGIANFYDNLVNDGPGHTRIPPYEACEILMGSAEKFFPKDLVITFLKHIAAYPTGCTVKLSTGETGIVVEQNKSLPMRPIIRVLVADQTLSRVQAKEYNLVEERTLFIESILE”, the “soluble on expression in E. coli” value was “not soluble”. Consider “AEQDMYLLRQSFGKHKTVSAGVPWFSTLFGRDSLITASQTLMLNSQIAKETLILLAKYQGKIDDEWREEEPGKILHELRLGEMARCQEIPHTPYYGTVDATPLWLMLYAEHYAWTHDQELLELLWPNALAAMDWIDRNTKQTSYLSYFRKSKRGLANQGWKDSGDCIVNHKGELANGPIALCEVQAYVYAAKTRLAEIARMKKRLDLADRWLEEARSLKVRFNRDFWVEDQDFCALALDGDGKPVDSITSNPGHCLHLGLFTHERAYSVAERLRAPDMFNGWGIRTLSSLSPAYNPMGYHIGSVWPHDNALIAMGLRSLGLIDQALELFQGLFDMTSQQPYERPPELFCGYERNGDNAPVQYPVACTPQAWATGSIFQ”, for which the “soluble on expression in E. coli” value was “not soluble”. The entry for “MGSDKIHHHHHHMNTTHAVPSITPNNDPWEAYDDIKMFGKPTLTNIEVTTTTLCNMRCEHCAVGYTLQTKDPDALPLDLLLRRLDEIPHLRAFSITGGEPMLSKKSVESYVVPLLRYAHERGARTQINSNLTLNIERYEKILPYLDVLHISHNYGSINDFTDIGFAVMERKPSIEQREALFHRMVENAKMLTQEGVFVSAETMINKRTLPHLEKIHEQIVSMGCQRHEVHPMYPSDFASALDVASLDEIRKGIHRLLDARDKKTWMLFGTLPFYPCSDQEEDLMLLKRLYGEPNVTVRNDPDGRSRLNVNLFDGNIIVTDFGDTPPLGNIMTTSFIEAYEKWQHSEISKELSCHCPMAECLGPNILVKNTYYRGVDFHKRKAVLHK” is “not soluble”.
